# Measured values: US20150056199A1 (ACCELERON PHARMA, published 2015)
# B1: ALK7 receptor-Fc fusion protein (Fc fusion, human, UniProt Q8NER5 21-113, looked up)
# chain: ELSPGLKCVCLLCDSSNFTCQTEGACWASVMLTNGKEQVIKSCVSLPELNAQVFCHSSNNVTKTECCFTDFCNNITLHLPTASPNAPKLGPME
# notes: Bought from R&D Systems or made in-house; not shown: IgG1 Fc domain
# B2: ALK5 receptor-Fc fusion protein (Fc fusion, human, UniProt P36897 34-126, looked up)
# chain: LQCFCHLCTKDNFTCVTDGLCFVSVTETTDKVIHNSMCIAEIDLIPRDRPFVCAPSSKTGSVTTTYCCNQDHCNKIELPTTVKSSPGLGPVEL
# notes: Bought from R&D Systems or made in-house; also called TGFβ receptor type I; not shown: IgG1 Fc domain
# B3: ALK2 receptor-Fc fusion protein (Fc fusion, human, UniProt Q04771 21-123, looked up)
# chain: MEDEKPKVNPKLYMCVCEGLSCGNEDHCEGQQCFSSLSINDGFHVYQKGCFQVYEQGKMTCKTPPSPGQAVECCQGDWCNRNITAQLPTKGKSFPGTQNFHLE
# notes: as for B1
# B4: murine GDF15 (mGDF15), mature, generated in-house in CHO cells (ligand)
# chain: AHPRDSCPLGPGRCCHLETVQATLEDLGWSDWVLSPRQLQLSMCVGECPHLYRSANTHAQIKARLHGLQPDKVPAPCCVPSSYTPVVLMHRTDSGVSLQTYDDLVARGCHCA
# B5: fusion protein incorporating the wild-type TβRIIlong isoform (R&D Systems) (Fc fusion)
# chain: TIPPHVQKSDVEMEAQKDEIICPSCNRTAHPLRHINNDMIVTDNNGAVKFPQLCKFCDVRFSTCDNQKSCMSNCSITSICEKPQEVCVAVWRKNDENITLETVCHDPKLPYHDFILEDAASPKCIMKEKKKPGETFFMCSCSSDECNDNIIFSEEYNTSNPD
# notes: Bought from R&D Systems; also called TβRIIlong-Fc; not shown: Fc fusion partner of the purchased construct is not described for this follow-up analysis
# B6: human GDF15 (hGDF15), mature, generated in-house in CHO cells (ligand)
# chain: ARNGDHCPLGPGRCCRLHTVRASLEDLGWADWVLSPREVQVTMCIGACPSQFRAANMHAQIKTSLHRLKPDTVPAPCCVPASYNPMVLIQKTDTGVSLQTYDDLLAKDCHCI
# notes: also called MIC-1
# B7: hTβRII-hG1Fc fusion protein (R&D Systems) incorporating the wild-type TβRIIshort isoform (Fc fusion)
# chain: IPPHVQKSVNNDMIVTDNNGAVKFPQLCKFCDVRFSTCDNQKSCMSNCSITSICEKPQEVCVAVWRKNDENITLETVCHDPKLPYHDFILEDAASPKCIMKEKKKPGETFFMCSCSSDECNDNIIFSEEYNTSNPD
# notes: Bought from R&D Systems; also called hTβRII-Fc; TGFβ receptor type II (TβRII)-Fc; not shown: human IgG1 Fc domain
# B8: ALK4 receptor-Fc fusion protein (Fc fusion, human, UniProt P36896 24-126, looked up)
# chain: SGPRGVQALLCACTSCLQANYTCETDGACMVSIFNLDGMEHHVRTCIPKVELVPAGKPFYCLSSEDLRNTHCCYTDYCNRIDLRVPSGHLKEPEHPSMWGPVE
# notes: as for B1
# Assays:
# [1] = molecular target: B4; test: surface plasmon resonance with captured receptor-Fc fusion proteins
# Excerpt: (§1) These fusion proteins incorporated an IgG1 Fc domain and were either purchased from R&D Systems or generated in-house.
# [2] = molecular target: B7; test: surface plasmon resonance at 37° C., mGDF15
# [3] = molecular target: T1, ALK3 receptor-Fc fusion protein (human, UniProt P36894 24-152); test: surface plasmon resonance with captured receptor-Fc fusion proteins
# T1 construct: Bought from R&D Systems or made in-house; not shown: IgG1 Fc domain
# Excerpt: as §1
# [4] = molecular target: T2, ALK6 receptor-Fc fusion protein (human, UniProt O00238 14-126); test: as above
# T2 construct: Bought from R&D Systems or made in-house; not shown: IgG1 Fc domain
# T2 sequence (looked up): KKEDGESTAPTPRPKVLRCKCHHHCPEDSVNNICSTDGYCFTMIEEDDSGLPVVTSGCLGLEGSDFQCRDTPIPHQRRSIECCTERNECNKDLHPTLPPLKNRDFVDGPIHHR
# Excerpt: as §1
# [5] = molecular target: B4; test: surface plasmon resonance at 37° C., mGDF15
# [6] = molecular target: B7; test: surface plasmon resonance at 37° C., hTβRII-Fc captured, hGDF15 as analyte; 37° C.; hTβRII-Fc captured, hGDF15 as analyte
# Excerpt: as §1
# [7] = molecular target: T3, GDF15 (human or murine, not specified where printed); test: surface plasmon resonance, receptor-Fc captured, GDF15 as analyte
# T3 construct: Used here only where the species cannot be told
# Excerpt: as §1
# T1 sequence (P36894 24-152 limits assumed): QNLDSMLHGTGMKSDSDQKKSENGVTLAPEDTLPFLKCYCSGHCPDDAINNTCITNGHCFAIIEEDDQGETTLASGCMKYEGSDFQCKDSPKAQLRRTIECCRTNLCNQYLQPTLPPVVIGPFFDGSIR
binder,measurement,setting,value
B1,binding result,[1],no binding (tested: 20 nM or 200 nM)
B2,binding result,[1],no binding (tested: 20 nM or 200 nM)
B3,binding result,[1],no binding (tested: 20 nM or 200 nM)
B4,Kd,[2],4.8 nM
same,binding result,[3],no binding (tested: 20 nM or 200 nM)
same,binding result,[4],no binding (tested: 20 nM or 200 nM)
B5,Kd,[5],2.7 nM
B6,Kd,[6],9.56 nM
B7,koff,[7],0.001 s⁻¹
same,kon,[7],292000 M⁻¹ s⁻¹
B8,binding result,[1],no binding (tested: 20 nM or 200 nM)
